Laboratory results as given in paper PMC4075756 (Nature, 2011).

Molecular target: the molecule itself
Assay: SEC + other: sucrose gradient centrifugation

B1: rat dynamin 1 lacking the proline-rich domain (Dyn1 ΔPRD) (domain or fragment)
chain: MGNRGMEDLIPLVNRLQDAFSAIGQNADLDLPQIAVVGGQSAGKSSVLENFVGRDFLPRGSGIVTRRPLVLQLVNSTTEYAEFLHCKGKKFTDFEEVRLEIEAETDRVTGTNKGISPVPINLRVYSPHVLNLTLVDLPGMTKVPVGDQPPDIEFQIRDMLMQFVTKENCLILAVSPANSDLANSDALKIAKEVDPQGQRTIGVITKLDLMDEGTDARDVLENKLLPLRRGYIGVVNRSQKDIDGKKDITAALAAERKFFLSHPSYRHLADRMGTPYLQKVLNQQLTNHIRDTLPGLRNKLQSQLLSIEKEVDEYKNFRPDDPARKTKALLQMVQQFAVDFEKRIEGSGDQIDTYELSGGARINRIFHERFPFELVKMEFDEKELRREISYAIKNIHGIRTGLFTPDLAFEATVKKQVQKLKEPSIKCVDMVVSELTSTIRKCSEKLQQYPRLREEMERIVTTHIREREGRTKEQVMLLIDIELAYMNTNHEDFIGFANAQQRSNQMNKKKTSGNQDEILVIRKGWLTINNIGIMKGGSKEYWFVLTAENLSWYKDDEEKEKKYMLSVDNLKLRDVEKGFMSSKHIFALFNTEQRNVYKDYRQLELACETQEEVDSWKASFLRAGVYPERVGDKEKASETEENGSDSFMHSMDPQLERQVETIRNLVDSYMAIVNKTVRDLMPKTIMHLMINNTKEFIFSELLANLYSCGDQNTLMEESAEQAQRRDEMLRMYHALKEALSIIGDINTTTVST
stoichiometry N: 2
